assay: soluble on expression in E. coli; label from the status in PepcDB or PDB records

Sequence	soluble on expression in E. coli
MHFKDLGLHDYTLKNLMYENNCCKFYDAVDENNISYVLKFVPSDVTSEGDTFPFVDRFQVKEGVFLVYSSNDFGKEGTDYFTYTGSGGNEVHISGTSSEAGIKPQFIETCHPKHLKRGTKEQEDINSSTSKKSAVINNFSGEKTPNPRPQSSNISERETYVGILNVKCKNKNSSKIRSEKLVSSVIETKHTPGLASILSKEGTTYPNNADGKHISIVNPSSKIYHSSHKQIVKTPIPKSGLSPIERCPFNGQNIKCYSPRPLDHESPQRDFNNNFQLRILKSSVLQRRQSTQNS	soluble
MGSDKIHHHHHHVPPLRLAIVGDIHDQWTLADQQLLLQLQPDLTLFVGDFGNESLALVQAIAAIPLRKAVILGNHDAWYTATRWRRSQCPYDWMRENRFEQQLEALGGLHIGYGRLDFPEWNLSVVGGRPCSAGGSQWQHRRFYRHYYQVGSFPESAQRIADCAIASPCDRVLFLAHCGPSGLGDQPEDPCGKDWSRPGGDFGDPDLAMAIAQVQAQKVVPLVCFGHMHHRLRHRRDRPRRSWHRDTAGTVYLNAAASPRILKAQQTTLHHLLWVELSDSLVTAQQTWWTPAGVLVQSEELPLVPQPA	not soluble
MSLKNNIYGNVPCFLNSKNLNQTNTLDTDVIVYGAPFEGESTWGDYTGVELGPKQIRVCSARYSQYLPELNHIDISEHLTMGDVGDVPFVAHDNKQSYDNISDFAKKLWDSGKFLVGFGGEHGVTYPILKALTETGKKVGIIHLDAHYDNMPDYEGEPYARNTPFMRLYETDGIRNESIIHTGIHGPRNKPETGRFAQEAGAVTLTINDIRAAKDLKTYAHEIYAQASKDVDVVYLTICSDVLDFAFNPGGPVDGNGLSSYELLTMIHEFGKLGLGGMDYVEVYPMMDANQNSAHFVSTAVLYVLAGHVAYLNQTEGHHHHHH	soluble
MTIRLNDLGQVYLVCGKTDMRQGIDSLAYLVKSQHELDLFSGAVYLFCGGRRDRFKALYWDGQGFWLLYKRFENGKLAWPRNRDEVKCLTAVQVDWLMKGFFISPNIKISKSHDFY	not soluble
ADDILNVHRRNAKDPFAVGAVDAPLVITEFSDFECPFCARWSNQTEPTLMEEYVSKGLVRIEWNDLPVNGEHALAAAKAGRAAAAQGKFDEFRKALFEASRNVSGHPNNTLKDFERFARNAGVKDMERFSREAQDSTYDEVLTKAADYAHGLGVSGTPAFVVGTQYISGAQPTEEFIKVIESELKKSPTFSTPSSHQN	not soluble
MPEMADVMQTQAGDAGAFRHFDLSRVPTPCFVVDEVAIERNLKILRDISDRSGAHVLSALKAFSMFTLAPLVRQYLGGTCASGIYEARLGREEYGGEVATFCAGYKEQDIDEILSLSNHIIFNSPAQKDRFLSRAQAAGVQVGLRINPEHSEGEIAKYDPCAPCSRLGTPVSLLTPETLKGVDGLHMHTLCEQGFEPLLRTWAAVEPKLAPYLPGLKWLNFGGGHHITRADYDRDALIDFLKSLRARHGLDVYLEPGEAVALDAGILVGEILDLPSNGMDLAITDISATCHMPDVIEAPYRPALMDEADSGHTYRLGGPSCLAGDVIGDYTWDQPLTIGQRFAFLDQAHYSMVKTNTFNGVPLPTIALWNSKTDALRIVRQFDYSDFKDRLS	not soluble
MKGLFVTIEGPEGSGKTTLIQSLLPYFEQKEQKVMATREPGGIAISEDIRTILHKQEYTMMEARTEALLYAAARRQHLVEKVMPALNEDYLVLCDRFIDSSLAYQGYARGLGMDKVFEINRFATEDCMPSLTIYLDIEPEVGLARIAKDAGREVNRLDMEDISFHKRVREGYLQVVERFSDRIVLVNADQPMEKLIEEVIQVIEDKLL	soluble
MGSDKIHHHHHHMKKEDKTPSRLIQLGKIYRLIEQFEEISRIELSKLSGLAPASITSLSRSLIEKRLIMEKTSRNTDNRGRPAIALCVSPFYWQALCATLVEDRFEIILSELDGVIIEQSVFPLQKDDLECLDKFLVKSVKQFLAETHSLARPITFSVTVGGELDKNGYLIKLGCTKFAHLDLKSLFTPYFNIPILIAEYFKTWLLAESTLGNVINCDDVLFLQLDDEINLSVLSEGELLFSREQDKININHLIVPRLNELQALINHDLPEVERYQVQHQVTHRAIAQFIDALYPNRVFSNNSEKMNFLCEQIQLKDKNALRIIEHITDCLAYILMNLVHIFSARRVMLNSSLLQLKDFLLEQLNRKLKSYLVDNISTVSVIAGKYEWNSPIVAASAIKQGIYDGSLLTSLVKQEENIINF	not soluble
IGFQRGAQGEGLVVIDLQGTNTPVDVQQQGSKVVVRFPGIKIPTHLARRLNTTDFATPVASIDSYNDGSNGVISIQSTGSYEYMAYQAENKLTISLKRPQDNV	not soluble
MGSDKIHHHHHHMKEKVFRDPVHNYIPVEDELIYDLINSKEFQRLRRIKQLGSSSFTFHGAEHSRFSHCLGVYYLARRVTNIFDKKYSDIWNSNESLLTMTAALLHDIGHGAYSHTFERLFDTNHETITQQIILSPETEINTILRRVSPDFPDKVASVINHTYSNKQVEQLISSQIDVDRMDYLLRDSYFTGASYGEFDLTRVLRVIRPIENGIAFSRDGMHAVEDYIISRYQMYMQVYFHPASRAMEVLLQNLLKRAKYLYPKEKEFFTVTSPHLIPFFENRVTLEDYLSLDDGVMNTYFQTWMQSADKILSDLASRFINRKVFKSITFDEKDLSNLEKLRKIVKDLGFDPTYYTALHLNFDLPYDVYKPDVQNPRTQIEMLQEDGSIAELSTLSPLVHTLSGTTHGDRRFYFPKEMLIKDGLFVEAKEKFSHYIKNKHFYNLRE	not soluble
MSESTSSVGPGRPKDPAKREAILEAAKRLFLCNGYDGSSMEAIASEAGVSKLTVYSHFTDKETLFSEAVKAKCAEQLPALYFQLAEGAPLEKVLLNIARGFHRLINSHEAIALTRLMAAQAGQNPKLSELFFEAGPKQVIDEMERLLEQARRSGKLAFPDARHAAEHFFMLVKGCANYRLLIGCAEPLDEAEGERHVEEVVALFLRAFAAGG	not soluble
SLVCKNALQDLSFLEHLLQVKYAPKTWKEQYLGWDLVQSSVSAQQKLRTQENPSTSFCQQVLADFIGGLNDFHAGVTFFAIESAYLPYTVQKSSDGRFYFVDIMTFSSEIRVGDELLEVDGAPVQDVLATLYGSNHKGTAAEESAALRTLFSRMASLGHKVPSGRTTLKIRRPFGTTREVRVKWRYVPEGVGDLATIAPSIRAPQLQKSMRSFFPKKDDAFHRSSSLFYSPMVPHFWAELRNHYATSGLKSGYNIGSTDGFLPVIGPVIWESEGLFRAYISSVTDGDGKSHKVGFLRIPTYSWQDMEDFDPSGPPPWEEFAKIIQVFSSNTEALIIDQTNNPGGSVLYLYALLSMLTDRPLELPKHRMILTQDEVVDALDWLTLLENVDTNVESRLALGDNMEGYTVDLQVAEYLKSFGRQVLNCWSKGDIELSTPIPLFGFEKIHPHPRVQYSKPICVLINEQDFSCADFFPVVLKDNDRALIVGTRTAGAGGFVFNVQFPNRTGIKTCSLTGSLAVREHGAFIENIGVEPHIDLPFTANDIRYKGYSEYLDKVKKLVCQLINNDGTIILAEDGSFHHHHHH	soluble
MGSDKIHHHHHHMHPALWISKTGLDAQQTDISVISNNVANASTIGYKKSRAVFEDLLYQTVNQAGGISADNTKLPNGLNIGAGTKVVATQKMFSQGNMLTTDNSLDLMIEGPGFFEVQLPDGTPAYTRNGQFSLDDTGQIVTPGSGYVLQPAITIPENATGITVSAGGEVSVKIPGTAESQVIGQITMTDFINPSGLDPLGQNLYTETGASGTPIQGTASLDGLGAIRQGALETSNVNVTEELVNLIQSQRIYEMNSKVISAVDQMLAYINQNL	not soluble
MGSDKIHHHHHHMLFSAPPVLAPVVPGKALEFPQDFGAHNDFRIEWWYVTGWLETPTGKPLGFQITFFRTATEIDRDNPSHFAPDQLIIAHVALSDPAIGKLQHDQKIARAGFDLAYARTGNTDVKLDDWIFVRETDGRYRTRIEAEDFTLTFILTPSQPLMLQGENGFSRKGPGAPQASYYYSEPHLQVSGIINRQGEDIPVTGTAWLDREWSSEYLDPNAAGWDWISANLDDGSALMAFQIRGKDDSKIWAYAALRDASGHTRLFTPDQVSFHPIRTWRSARTQAVYPVATRVLTGETEWQITPLMDDQELDSRASAGAVYWEGAVTFTRDGQPAGRGYMELTGYVRPLSM	not soluble

From the DeepSol protein solubility set
